The text below walks through data of paper PMC6237427.

For one assay, the target named is germline-reverted VRC01. The experiment in a line: BLI; Octet Red, 29°C, shaking 500 r.p.m.; germline-reverted VRC01 IgG immobilised on anti-AHC biosensors (40 μg/ml in PBS); Env gp140 trimers in 2-fold dilution series (4 μM to >250 nM) in kinetic buffer (1X PBS pH7.4, 0.1% BSA, 0.02% Tween 20, 0.05% NaN3); 300 s association, 600 s dissociation; 1:1 binding model; relative apparent affinities.

In assay [1] the target is HIV-1 426c Env on Env-pseudotyped virus produced in 293S GnT1- cells (HIV-1).
Assay [2] deals with HIV-1 426c.DM (N460D.N463D) Env on Env-pseudotyped virus produced in 293S GnT1- cells (HIV-1).
In assay [3] the target is HIV-1 426c.SM (N276D) Env on Env-pseudotyped virus produced in 293S GnT1- cells (HIV-1).
Assay [4] deals with HIV-1 426c.TM1 (N276D.N460D.N463D) Env on Env-pseudotyped virus produced in 293S GnT1- cells (HIV-1).
The target in assay [5] is HIV-1 426c.TM4 (S278R.G471S.N460D.N463D) Env on Env-pseudotyped virus produced in 293S GnT1- cells (HIV-1).
In assay [6] the target is HIV-1 426c.TM4 (S278R.G471S.N460D.N463D) Env on Env-pseudotyped virus produced in 293T cells (HIV-1).
In assay [7] the target is HIV-1 TRO.11 Env on Env-pseudotyped virus produced in 293S GnT1- cells (HIV-1).
For assay [8], the target named is HIV-1 TRO.11 Env on Env-pseudotyped virus produced in 293T cells (HIV-1).
The target in assay [9] is HIV-1 426c Env on Env-pseudotyped virus produced in 293T cells (HIV-1).
Assay [10] has as its target HIV-1 426c.DM (N460D.N463D) Env on Env-pseudotyped virus produced in 293T cells (HIV-1).
Assay [11] deals with HIV-1 426c.SM (N276D) Env on Env-pseudotyped virus produced in 293T cells (HIV-1).
The target of assay [12] is HIV-1 426c.TM1 (N276D.N460D.N463D) Env on Env-pseudotyped virus produced in 293T cells (HIV-1).

As for “426c N276D gp140 (293T), uncleaved soluble trimer (domain or fragment)”, in the assay with germline-reverted VRC01, the Kd is 58.8 nM, the koff turned out to be 0.000193 s⁻¹ and the association rate constant (kon) was found to be 9010 M⁻¹ s⁻¹.

In the case of germline-reverted VRC04 (antibody), the IC50 of neutralization of the Env-pseudotyped virus in TZM-bl cells in [1], in [2], in [3], in assay [4], in assay [5] and in [6] was more than 25 µg/mL in each case.

On to “426c N276D gp140 (GnT1-), uncleaved soluble trimer (domain or fragment)”, for which, in the assay with germline-reverted VRC01, the Kd was determined as 178 nM, the koff was 0.000739 s⁻¹ and the kon turned out to be 11100 M⁻¹ s⁻¹.

Consider “TM1 gp140 (GnT1-), uncleaved soluble 426c trimer (domain or fragment)”, for which, in the assay with germline-reverted VRC01, the Kd is 42.6 nM, the off-rate (koff) came out at 0.000229 s⁻¹ and the kon was found to be 5370 M⁻¹ s⁻¹.

Take germline-reverted VRC18b (antibody): the IC50 of neutralization of the Env-pseudotyped virus in TZM-bl cells was more than 25 µg/mL in assay [1]; more than 25 µg/mL in [2]; more than 25 µg/mL in assay [3]; 23 µg/mL in assay [4]; 17.3 µg/mL in assay [5]; more than 25 µg/mL in assay [6].

Consider germline-reverted VRC23 (antibody), for which the IC50 of neutralization of the Env-pseudotyped virus in TZM-bl cells in [1], in [2], in assay [3], in assay [4], in assay [5] and in [6] was more than 25 µg/mL each time.

With germline-reverted VRC20 (antibody), the IC50 of neutralization of the Env-pseudotyped virus in TZM-bl cells is more than 25 µg/mL in assay [1]; more than 25 µg/mL in assay [2]; 10.3 µg/mL in [3]; 4.6 µg/mL in assay [4]; 0.03 µg/mL in [5]; 2.39 µg/mL in [6].

With “TM1 gp140 (293T), uncleaved soluble 426c trimer (domain or fragment)”, in the assay with germline-reverted VRC01, the Kd amounted to 29.4 nM, the dissociation rate constant (koff) came to 0.000148 s⁻¹ and the association rate constant (kon) was determined as 5030 M⁻¹ s⁻¹.

germline-reverted 3BNC117 (antibody): the IC50 of neutralization of the Env-pseudotyped virus in TZM-bl cells in assay [1], in assay [2], in assay [3], in assay [4], in assay [5] and in assay [6] was more than 25 µg/mL throughout.

On to germline-reverted VRC07 (antibody), for which the IC50 of neutralization of the Env-pseudotyped virus in TZM-bl cells in assay [1] was more than 25 µg/mL; in assay [2] it was more than 25 µg/mL; in assay [3], 0.76 µg/mL; in assay [4] it was 1.6 µg/mL; in assay [5], 1.7 µg/mL; in assay [6], more than 25 µg/mL.

As to germline-reverted VRC01 (antibody), the IC50 of neutralization of the Env-pseudotyped virus in TZM-bl cells in [7], in assay [8], in [1], in assay [9], in assay [2] and in assay [10] was more than 50 µg/mL throughout. In addition, the IC50 of neutralization of the Env-pseudotyped virus in TZM-bl cells in [3] is 0.99 µg/mL; in assay [11], more than 50 µg/mL; in assay [4] it was 1.37 µg/mL; in assay [12], more than 50 µg/mL; in [5], 0.36 µg/mL; in assay [6] it was more than 25 µg/mL.

As for germline-reverted 12A12 (antibody), the IC50 of neutralization of the Env-pseudotyped virus in TZM-bl cells is more than 25 µg/mL in assay [1]; more than 25 µg/mL in assay [2]; more than 25 µg/mL in [3]; more than 25 µg/mL in assay [4]; 0.63 µg/mL in assay [5]; more than 25 µg/mL in assay [6].

Take germline-reverted VRC03 (antibody): the IC50 of neutralization of the Env-pseudotyped virus in TZM-bl cells in assay [1], in assay [2], in assay [3], in assay [4], in assay [5] and in [6] was more than 25 µg/mL in each case.
